In patent US7026125, “Heterodimers of retinoid X receptors (RXRS) and other steroid hormone receptors” (Ligand Pharmaceuticals):

Tests used:
Details in all cases: label: 32P
TRα [1] = biological target: T1, TRα (UniProt P10827-2 P10827-2:1-410); assay: EMSA
T1 sequence: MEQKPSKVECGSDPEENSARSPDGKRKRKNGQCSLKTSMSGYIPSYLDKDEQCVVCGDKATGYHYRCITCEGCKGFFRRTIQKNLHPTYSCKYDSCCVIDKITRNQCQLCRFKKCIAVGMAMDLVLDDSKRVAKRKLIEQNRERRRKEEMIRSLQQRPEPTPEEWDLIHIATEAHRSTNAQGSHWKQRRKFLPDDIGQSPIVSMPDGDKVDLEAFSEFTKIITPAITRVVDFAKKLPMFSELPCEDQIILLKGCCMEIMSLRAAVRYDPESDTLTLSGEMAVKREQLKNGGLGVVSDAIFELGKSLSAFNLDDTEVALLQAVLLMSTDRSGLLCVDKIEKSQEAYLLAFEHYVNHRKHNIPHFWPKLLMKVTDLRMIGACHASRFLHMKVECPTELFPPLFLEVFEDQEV
Procedure: (§1) In vitro translated receptor protein (1 to 5 μl depending on the translation efficiency) was incubated with the ^32P-labeled oligonucleotides in a 20-μl reaction mixture containing 10 mM hepes buffer, pH 7.9, 50 mM KCl, 1 mM DTT, 2.5 mM MgCl, 10% glycerol, and 1 μg of poly(dI-dC) at 25° C. for 20 minutes. In general, relative low receptor concentration was used to obtain the clear effect of heterodimer formation. The reaction mixture was then loaded on a 5% nondenaturing ployacrylamide gel containing 0.5×TBE (1×TBE=0.089 M Tris-borate, 0.089 M boric acid, and 0.002 M EDTA). To analyze the effect of RXRα or the nuclear proteins on receptor DNA binding activity, RXRα or the cell extracts were preincubated with receptor protein at room temperature for 10 minutes before performing the DNA binding assay. When antibody was used, 1 μl of the antiserum was incubated with the specific translation products at room temperature for 45 minutes before performing the experiments described above.

TRα/RXRα heterodimer [2] = biological target: T2, TRα/RXRα heterodimer (UniProt P10827-2;P19793 P10827-2:1-410,P19793:1-462); assay: EMSA; TRα binding abolished by RXRα
T2 sequence (P19793 whole entry, one chain of several): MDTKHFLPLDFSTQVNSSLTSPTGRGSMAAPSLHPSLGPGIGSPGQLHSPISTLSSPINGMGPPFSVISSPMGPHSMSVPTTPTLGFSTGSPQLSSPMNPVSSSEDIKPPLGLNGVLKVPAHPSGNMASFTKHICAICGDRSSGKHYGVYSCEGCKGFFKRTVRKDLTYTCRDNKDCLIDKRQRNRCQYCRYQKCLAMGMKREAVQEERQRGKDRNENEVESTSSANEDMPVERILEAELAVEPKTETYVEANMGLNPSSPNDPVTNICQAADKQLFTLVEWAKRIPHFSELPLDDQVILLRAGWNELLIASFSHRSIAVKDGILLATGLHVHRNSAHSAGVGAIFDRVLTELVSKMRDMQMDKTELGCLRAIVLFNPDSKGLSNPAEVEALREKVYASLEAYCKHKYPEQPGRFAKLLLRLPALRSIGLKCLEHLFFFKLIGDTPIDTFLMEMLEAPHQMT
Procedure: as §1

RXRα = RXRα (Homo sapiens, UniProt P19793 P19793:1-462); assay: EMSA; at concentration used
RXRα, sequence (P19793 whole entry, one chain of several): as above
Procedure: (§2) (b) Gel retardation analysis of RXRα-TRα interaction using different DNA response elements. Gel retardation assays were carried out essentially as described in FIG. 1a but using different response elements. (−) represents the binding of unprogrammed reticulocyte lysate.
as §1

TRα/RXRα heterodimer [3] = biological target: T2, TRα/RXRα heterodimer; assay: EMSA; strong binding
Procedure: as §1

TRα [4] = biological target: T1, TRα; assay: EMSA; no visible binding
Procedure: as §2, §1

TRα [5] = biological target: T1, TRα; assay: EMSA; one complex
Procedure: as §1

TRα/RXRα heterodimer [6] = biological target: T2, TRα/RXRα heterodimer; assay: EMSA; strongly enhanced and upshifted versus TRα alone
Procedure: as §1

TRα [7] = biological target: T1, TRα; assay: EMSA; about as efficient as palindromic TRE
Procedure: as §1

B1: ERE palindrome (dsDNA)
DNA 1: GATCTCAGGTCACTGTGACCTGAGATC
DNA 2: GATCTCAGGTCACAGTGACCTGAGATC
- binding result (TRα [1]): binds
- binding result (TRα/RXRα heterodimer [2]): no binding
- binding result (RXRα): no binding

B2: βRARE (dsDNA)
DNA 1: GATCAGGGTTCAGGCAAAGTTCACGATC
DNA 2: GATCGTGAACTTTGCCTGAACCCTGATC
- binding result (TRα/RXRα heterodimer [3]): binds
- binding result (TRα [4]): no binding
- binding result (RXRα): no binding

B3: TRE/OP (inverted repeat, 4 bp spacer) (dsDNA)
DNA 1: GATCCTGACCTGAGATCTCAGGTCAGGATC
DNA 2: B3 DNA 1
- binding result (TRα [5]): binds
- binding result (RXRα): no binding
- binding result (TRα/RXRα heterodimer [6]): binds

B4: TRE/half (dsDNA)
DNA 1: GATCTCAGGTCAGATC
DNA 2: GATCTGACCTGAGATC
- binding result (TRα [7]): binds
- binding result (TRα/RXRα heterodimer [2]): no binding
- binding result (RXRα): no binding
